Publication PMC2291572, “HDP—A Novel Heme Detoxification Protein from the Malaria Parasite” (PLoS Pathogens, 2008)

B1: Heme Detoxification Protein (HDP), native, from P. falciparum-infected RBCs (natural protein, UniProt Q8IL04 1-205, looked up)
chain: MKNRFYYNLIIKRLYTRSGGLRKPQKVTNDPESINRKVYWCFEHKPVKRTIINLIYSHNELKIFSNLLNHPTVGSSLIHELSLDGPYTAFFPSNEAMQLINIESFNKLYNDENKLSEFVLNHVTKEYWLYRDLYGSSYQPWLMYNEKREAPEKLRNLLNNDLIVKIEGEFKHCNHSIYLNGSKIIRPNMKCHNGVVHIVDKPIIF
notes: Heme Detoxification Protein (HDP), Plasmodium falciparum, 205 amino acids; detected as intact HDP according to its predicted size; Called a dimer from bands on immunoblots and a silver-stained gel; also called native HDP; PfHDP; source: endogenous, extracts of P. falciparum trophozoite-infected RBCs and food vacuole preparation; also purified from the infected RBC extract by immunoprecipitation
B2: HDPc-Myc (HDP with a carboxyl-terminal c-Myc tag) (natural protein, P. falciparum, UniProt Q8IL04 1-205, looked up)
chain: B1 chain
notes: Heme Detoxification Protein (HDP), Plasmodium falciparum, 205 amino acids; the tag is described as attached to the end of the protein and found intact; also called pHDPc-Myc; source: P. falciparum 3D7 parasites, transfected (episomal expression), secreted into infected RBC cytosol; not shown: c-Myc, C-terminal, kept
B3: c-MycHDP (HDP with an amino-terminal c-Myc tag) (natural protein, P. falciparum, UniProt Q8IL04 1-205, looked up)
chain: B1 chain
notes: Heme Detoxification Protein (HDP), Plasmodium falciparum, 205 amino acids; the tag is described as attached to the end of the protein and found intact; also called pc-MycHDP; source: P. falciparum 3D7 parasites, transfected (episomal expression), secreted into infected RBC cytosol; not shown: c-Myc, N-terminal, kept

Experiments:
[1] = target: T1, HDP (Heme Detoxification Protein; PF14_0446) (Plasmodium falciparum, UniProt Q8IL04); test: isothermal titration calorimetry; format: binding
T1 construct: full length, 205 residues; E. coli BL21 inclusion bodies, N-lauryl sarkosine solubilised

[2] = target: the molecule itself; test: immunoblot (band of dimer size); Western blot with anti-HDP antibodies on protein extract of trophozoite-infected RBCs; gel conditions not shown
[3] = target: the molecule itself; test: immunoblot (band of dimer size); Western blot of transfected parasites with a monoclonal antibody against the c-myc tag; protein secreted into infected RBC cytosol

Row | Molecule | stoichiometry N [3] | other results
1 | C=CC1=C(C)C2=Cc3c(C=C)c(C)c4[n]3[Fe]([Cl])[n]3c(c(C)c(CCC(=O)O)c3=CC3=NC(=C4)C(C)=C3CCC(=O)O)=CC1=N2 [heme] | – | Kd [1]: 80 nM
2 | B1 | – | stoichiometry N [2]: 2
3 | B2 | 2 | –
4 | B3 | 2 | –
